Laboratory results from US20130195836A1.

Biological target: human macrophage mannose receptor C type 1 (MRC1) (human) (UniProt P22897)
Assay: flow cytometry on stable pool of MRC1-transfected HT1080 cells compared to untransfected HT1080 cells

Sequence of UniProt P22897 (P22897 19-1456 limits assumed): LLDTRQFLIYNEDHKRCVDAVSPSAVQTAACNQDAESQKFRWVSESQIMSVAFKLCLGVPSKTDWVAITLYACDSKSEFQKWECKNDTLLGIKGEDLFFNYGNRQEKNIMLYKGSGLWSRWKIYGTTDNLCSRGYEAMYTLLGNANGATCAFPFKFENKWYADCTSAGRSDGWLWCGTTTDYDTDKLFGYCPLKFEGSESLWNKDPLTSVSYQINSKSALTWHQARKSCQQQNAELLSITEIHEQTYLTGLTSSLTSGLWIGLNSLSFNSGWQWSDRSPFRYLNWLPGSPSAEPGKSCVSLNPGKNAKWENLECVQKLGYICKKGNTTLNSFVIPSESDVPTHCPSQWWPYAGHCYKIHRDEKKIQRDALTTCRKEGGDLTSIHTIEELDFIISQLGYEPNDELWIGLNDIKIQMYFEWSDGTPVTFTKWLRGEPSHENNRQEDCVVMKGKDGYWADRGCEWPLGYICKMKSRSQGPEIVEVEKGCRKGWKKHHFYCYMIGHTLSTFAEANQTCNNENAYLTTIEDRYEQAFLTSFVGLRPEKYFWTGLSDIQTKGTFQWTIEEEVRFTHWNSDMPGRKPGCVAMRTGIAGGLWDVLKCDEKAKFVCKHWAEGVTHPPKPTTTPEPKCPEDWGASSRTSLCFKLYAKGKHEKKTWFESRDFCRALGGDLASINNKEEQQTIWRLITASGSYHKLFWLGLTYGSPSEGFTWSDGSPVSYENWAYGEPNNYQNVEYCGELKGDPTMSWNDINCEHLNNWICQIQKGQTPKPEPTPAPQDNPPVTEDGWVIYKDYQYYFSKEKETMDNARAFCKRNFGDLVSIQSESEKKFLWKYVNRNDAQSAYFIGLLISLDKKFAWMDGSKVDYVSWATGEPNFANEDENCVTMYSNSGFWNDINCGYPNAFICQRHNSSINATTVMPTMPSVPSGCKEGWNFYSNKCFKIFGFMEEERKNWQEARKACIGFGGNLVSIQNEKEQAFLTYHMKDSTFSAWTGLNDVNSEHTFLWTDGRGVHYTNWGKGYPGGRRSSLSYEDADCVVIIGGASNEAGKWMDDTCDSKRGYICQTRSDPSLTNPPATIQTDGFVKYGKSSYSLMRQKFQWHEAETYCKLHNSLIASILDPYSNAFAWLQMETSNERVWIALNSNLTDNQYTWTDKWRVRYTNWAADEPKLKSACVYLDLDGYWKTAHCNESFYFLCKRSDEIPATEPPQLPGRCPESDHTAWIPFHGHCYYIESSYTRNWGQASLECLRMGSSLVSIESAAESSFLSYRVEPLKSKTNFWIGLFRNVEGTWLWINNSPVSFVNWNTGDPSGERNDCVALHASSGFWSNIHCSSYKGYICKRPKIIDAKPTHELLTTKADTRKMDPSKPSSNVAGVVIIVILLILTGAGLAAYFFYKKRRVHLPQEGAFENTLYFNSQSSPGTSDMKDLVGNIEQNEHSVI

- Relative Fluorescence Intensity (RFI) above the background: 1.5 logs
Substance: FITC conjugated Mouse anti-human MRC1 antibody (BD Biosciences Cat #551135)
